# Assay results: the DeepSol protein solubility set
# Assay: soluble on expression in E. coli; label from the status in PepcDB or PDB records
row,Sequence,soluble on expression in E. coli
1,MGSDKIHHHHHHMSAVIGYRHGKAGERGIILCARQFQNSLNESSLEEIKRAIESYPFLQDYYEIGDKYIKSKDGRIVYVFAGLDRNIASIKSMGRVFLCWVDEAEPVTETAWQTLIPTLREEGNDWNAELWVTWNPCRENAPVEKRFRNVNNPHIKGAEITWRDNPQFPEKLNRDRKADLEQRPEHYNHIWEGEYLQTVEGAYYQKALLEASREGRITTVPRDPLMQIRIFWDIGGTGAKADATALWVAQFVGREIRVLDYYEAQGQPLSEHVGWVFQRGYDKALMVLPHDGATKDRVYNVSFESALQQAGFQTKVIPNQGVGAVKMRIEAVRRLFPAIWFNRETTHAGRKALAWYHEKRDEQRNIGLGAEHDWASHGADAFGLMCVAYEQPNMRPKKNTYRSSHHSQTSWMAF,not soluble
2,CTRAVYLGPDRMVVTGRTMDWKEDIMSNIYVFPRGMQRAGHNKEKTVNWTSKYGSVIATGYDIGTCDGMNEKGLVASLLFLPESVYSLPGDTRPAMGISIWTQYVLDNFATVREAVDEMKKETFRIDAPRMPNGGPESTLHMAITDETGNTAVIEYLDGKLSIHEGKEYQVMTNSPRYELQLAVNDYWKEVGGLQMLPGTNRSSDRFVRASFYIHAIPQTADAKIAVPSVLSVMRNVSVPFGINTPEKPHISSTRWRSVSDQKNKVYYFESTLTPNLFWLDLKKIDFSPKAGVKKLSLTKGEIY,not soluble
3,GMVEVSQFKDAMAQLASAVHIVTTSGETGQHGFTASAVCSVTDSPPTLLVCINSNARAYEHFVKNRVLMVNTLTAEQSSLSNIFASPLSQEERFSNASWTTLTTGSPMLQDALINFDCEITEIKHVGTHDILICKIVDIHQSNAKNALVYRNRVYHSV,soluble
4,MGSVRKASAWLGLVDDNDDERYYDDDYAEGQESGEAWVTDPRVKVASETAEEKGRRIGTVTPDSFRDARGIGELFRDGVPVIINLTAMEPTDAKRVVDFAAGLTFGLRGTIERVATRVFLLTPANTEIVSGEAAGRPTDGFFNQSLEHHHHHH,not soluble
5,MGSDKIHHHHHHMHQTILHAFSQHAASCYPNECCGLLIRQGNKAQYVKCENKATNKADEFVIDPQQYADIEELGAIIGICHSHPDASSKPSDRDRAMCEASGLPWHILSWPDGDLRTIVPTGERKSLLNRPFVHGVWDCYSCVRDWYSEVQQIHLPDFARQDGWWEGEQELYLDNFAKAGFVALPNINLADLQIGDVFLMQIQSQRVNHAAVYVGEGKILHHLYGRLSRYDIYGGYWQRNTRLIVRHCQ,not soluble
6,MSLTGGVISGLGKGTITSSIGHILKDSGIKVSAVKIDPYINYDAGTMNPYQHGEVFVLDDGGEVDLDLGNYERFMNINLSRDNNITTGKVYLEVIQKERHGDYLGKTVQIIPHITDEIKRRIREVARTSGADVVLIEVGGTVGDIESMPFLEALRQLKREEQNVVFAHVTLVPEIGPTMEQKTKPTQHSVKALREIGIQPDIIFARSKQKLTEETKSRISLFTDVPVEGIISVSDVENVYLLPQMMVNEGLITRLSKLLNMNIEYRDSWTSYAENIRHPRDRVKVAIVGKYVDLHDAYISHKEAFSHVTGNTGIAVDIMWIDSEKVKNDQSVLSEADAILIPGGFGYRGVEGKIAATRYAMENGVPFLGICLGFQVAVIAVARYVLGLDGANSTEFDEKTKYPVVDILPEQRGVKDMGGTMRLGSKKVVIKKGTLAHRIYGADVIYERHRHRYEVNPDYIDMIEKAGFKFSATDEEGIRMEILERPGDESFIATQYHSEFKSRPLDPSKVHLHLVEQALIFKHRRMGENHEGYATAASSQGQEGHHHHHH,soluble
7,MVQVGAAAINRVDVAVIGGGIAGVAIAEYVARHTNLSVQLLEQNSHLGGDSSGKLEGWFHTGALYSGQDDGQTFFNCVNGVEDLLNHYSHYFAGRCNLTLEQFDHGYRPTVTGAGWFDPNPVYLIHPQRHSPEMLQSGLKGDRVQLEMQLKRVLGRLEMAYGQQFNWRSPTGNGAVAPDYDHLESYEQRSCSLLGQSEKISHYCQQFDLSHGVKPSDYALLKSLDCAMDTQGILQDLTASALAHGTAIATGINLEQINVDRYGPVRVQSIFYRDCQGQQHYLKAKAFIFAVGAGFERILPTLQVRAKLKQSRSTMVVAYPAISSHNFVRMSTKNSYHFNHFFQRANIPDSSEFLNYSMLANSGYVSNENDYLASGEIELLLDTAARYFSEENLYQRQLWSYDCVKTEFISDDAQKRRYSYWIEVNPQSNYLCVLPGKFSFFPTVAVQTLKQLKTILPTEEVDRSHRDYSAHYHQAQALVASPYPHQLLASYWKNNANSLEHHHHHH,soluble
8,GMSNQKHIDKIQAVIKDVKFAMISTSNKKGDIHAWPMTTSEVNLDNKEIWFIGDKTSDVVKDIQDDARIGLTYATQDEKNYVSISGDAELPTDKAKLDELWSPVYSAFFANGKEDANIQLIKVVPHGVECWLSG,soluble
9,TGAQTKLTQTGAITTVNVDHLKANPSSSIVNTLAGNVAGVLAMQTSGQPGKNVSEFWIRGISTFGASTSAYVLVDGFERSMDEINIEDIESFSVLKDASATAIYGSKGANGVVLITTKHGKAG,not soluble
10,MKNTQFALFMVLNGRATEALTFYQEAFAGDILFKITNQEFKERLNPSLTIPAGEEHWLSHSILQMDTFQLQLADNPLFAGMNTTPTEQLTLSLTVNSRHSAKTIFEKLTCHPESCIIQEPIENEFATFYAIVKDPFGLVTQITHEKQADPTKKGS,not soluble
11,MSLGFSRQAFYKRHLNDLARHEEDVLCSSIIQYCWHLRQAEHLPQAGFRELMVLCQQYFGPKFTLGRDRFCALLRRHGMMLRKRSVRPRTTNSRHRLYKYEDLLNTEPKFVPQRPGELLVADITYVAYQDGFAYLSLLTDAYSRCIVGYCLHPTLEVEGCLNALHQAFAFYDQHQIDTTNMIHHSDRGIQYAGKSYTDLLHGRGWRISMTQTGDPLHNALAERMNNTLKNSWHISSSKQSFDQALLSVDRAVRMYNEARPHQALRAKTPMQVITPESEGHHHHHH,soluble
12,MGGDRAPDEILKGALLASKEVEGEIVLIGPEEIVKNKGLPFVSASEIVKMDDPPLEVLRKKNSSMHMGLKLLSEGKVDAFVSAGATGPLFLGATSIVGKLEGIERPALGVAVPSLKGATVLIDAGANAKVRPEHLVDFAFMGIAYSKVLGAENPRVGLLNMGSEENKGPDDIKRAYQLLKEFLGDTFFGNVEGHDINLGTVDVVVADGFSGNVALKTMEGTAKLVTSVLKESIKDGGFLSLLGALLMKRSFDKMKEKLDPRSYGGTFILGVKGIVVKAHGSSDAKAIKHAIKVAEKGIRVNIVQEIERGISHVRNSGDGR,soluble
13,MSLHSLQRKVLRTICPDQKGLIARITNICYKHELNIVQNNEFVDHRTGRFFMRTELEGIFNDSTLLADLDSALPEGSVRELNPAGRRRIVILVTKEAHCLGDLLMKANYGGLDVEIAAVIGNHDTLRSLVERFDIPFELVSHEGLSRNEHDQKMADAIDAYQPDYVVLAKYMRVLTPEFVARFPNKIINIHHSFLPAFIGARPYHQAYERGVKIIGATAHYVNDNLDEGPIIMQDVIHVDHTYTAEDMMRAGRDVEKNVLSRALYKVLAQRVFVYGNRTIILEGHHHHHH,soluble
14,LLLLLPQGGDVRGGPGVREPGQAPQDRGGRDRLLGRGERESPGSDASGGERYSSGGGDGGDGDGGSGGGGDGEEGEGGEEGDEGDGDEGGSGGDESGSGGGPRSMPLSTEGGGSHHKVSVSPVVHVRGLCESVVEADLVEALEKFGTICYVMMMPFKRQALVEFENIDSAKECVTFAADVPVYIAGQQAFFNYSTSKRITRPGNTDDPSGGNKVLLLSIQNPLYPITVDVLYTVCNPVGKVQRIVIFKRNGIQAMVEFESVLCAQKAKAALNGADIYAGCCTLKIEYARPTRLNVIRNDNDSWDYTKPYLGRRDRGKGRQRQAILGDHPSSFRHDGYGSHGPLLPLPSRYRMGSRDTPELVAYPLPQASSSYMHGGSPSGSVVMVSGLHQLKMNCSRVFNLFCLYGNIEKVKFMKTIPGTALVEMGDEYAVERAVTHLNNVKLFGKRLNVCVSKQHSVVPSQIFELEDGTSSYKDFAMSKNNRFTSAGQASKNIIQPPSCVLHYYNVPLCVTEETFTKLCNDHEVLPFIKYKVFDAKASAKTLSGLLEWKCKTDAVEALTALNHYQIRVPNGSNPYTLKLCFSTSSHL,soluble
15,MGLTIPVILNSVNNLSDARYAAGMGVEFMGFEVEASGERYVSPDLYKAITAWLSGVQTVTELAVLTPAVLTTIQEQYQPDFIQFESVEGISQSDLADLPCIQKIIISTGQEAKIFNNLAQYIFSEANYVLLELSDWTNWTEFQQLITEINTAYPVIWSLPIEKEDAALIQEIELKGISLKGGDEQRPGWKDLDQLIDILEALEEN,not soluble
16,SDIEHILTAIAVLLEKRLDYDRGVIMMADAGGSALRVLASYGFDEAGRRVMHETPIALDGVGPRGVVAASFLDQKPFLVNDLDEINHLIPPLHRELGRRLGIRSFISCPIVCEGQSLGVLAVDTIRTG,not soluble
17,MASTAAETEKPEDHNDLVQLCNPHIAAMKEDILYHFSLSTSTHDFPAMFGDVKFVCVGGSPSRMKAFIKYVAMELGFAHPGADYPNICEGTDRYAMFKVGPVLSVSHGMGVPSIAIMLHELIKLLYHAHCSGVTLIRIGTSGGIGLEPGSVVITRQAVDPCFKPEFEQIVLGKREVRNTDLDEQLVQELARCSAELGEFPTVVGNTMCTLDFYEGQGRLDGALCSYTEKDKQDYLRAAYAAGIRNIEMEASVFAAMCNACGLRAAVVCVTLLNRLEGDQISSPHDVLAEYQQRPQRLVGQFIKKRLMQA,soluble
18,MSLVISIRRSRHEEGEELVAIWCRSVDATHDFLSAEYRTELEDLVRSFLPEAPLWVAVNERDQPVGFMLLSGQHMDALFIDPDVRGCGVGRVLVEHALSMAPELTTNVNEQNEQAVGFYKKVGFKVTGRSEVDDLGKPYPLLNLAYVGAEGGSHHHHHH,soluble
19,MEFKVGDTVVYPHHGAAVIEAIEHREMGGETLEYLVLQINQSDLVVRVPSKNAELVGVRDVVDDDGLQKVFGFLRETDVEEAGNWSRRFKANQERLASGDVNKVAEVVRDLWRRDQGKGLSAGEKRMLAKARQVLVGELALAENKDEKQTEEILAQVDATIERHRAENKGIEETKVEPLGDIDLDDLNFDDED,not soluble
20,MHSITTALENLTRQLSQEIPATPGLCVFDAPFPLNDAFDALSWLASQSSFPQFYWQQRNGDEEAAVLGAITVFSSLDLAQRFLRQHAQPDLRIWGLNAFEPKEGYLLLPRLEWRRSGGTATLRLHLHSDVSLRDDARQAKAFLASLVGIKPVPALRLSLTSEQHWPDKDGWVKLIQQATHTIAQEAFDKVVLARATDLQFSRPVNAAAMMASSRRLNLNCYHFFMAFSADTAFLGSSPERLWRRRETALRTEALAGTVANHPDNHKAWQLGEWLMKDDKNQRENMLVVEDICQRLQNCTHSLDVLPPQVLRLRKVQHLRRCIWTALNQADDTLCLHQLQPTAAVAGIPREPARCFIEQHEPFEREWYAGSAGYLSTRQSEFCVTLRSAKVTANVVRLYAGAGIVRGSDPEQEWQEIDNKAAGLRTLLQMDA,not soluble
21,MSLGDSRTKPMEILLVEDGLVDARVTIHALRRSGLHHRLTLVRSVHEAILFMKRTGIFARAPRLDLLLLDMILPDGTGIDVLEEMSELQPDSSRVTTVVLTACEDASYRTRCDELGVYDYIQKPVSEDEFLRVVRDHKKLMIHLQQAAVSAAAGNHSEGHHHHHH,soluble
22,MGSDKIHHHHHHMSYNFEEERVIKEIREKNAKRVLLQFPEGLKYFSIDIVKKLREKLPNVNFIISGEPSWGACDIAEDEAQQVNADLIIHFGHTPYTWYYPKFPTIFINAESNLDISENALHSLENDISKYNGRKISLTATLQHVRLLSKIKSFLEDKGYDIVIGKPSNRFMFDGQVLGCDYKAAEVEADIYVIVSGGLFHALGLGLATNKPTIKLDPYLQKSEDITNDVRKILKVRYGKILQALDKRSWVIIQGVKVGQNRPNMIKYFYDKLTEKGYDVFTVTNKVLTLDILRNLDRNYIDVFLVTSCPRLPIDDLYNYEKPVLTPGEAKMIINNSLEPYIFPW,not soluble
